{"source": "paper PMC4005696", "about": "“Type III restriction endonucleases are heterotrimeric: comprising one helicase–nuclease subunit and a dimeric methyltransferase that binds only one specific DNA” (Nucleic Acids Research, 2014)", "molecules": {"B1": {"name": "EcoPI specific 50-mer duplex (sDNA), native MS (dsDNA)", "DNA 1": "TGGCTTAGACCCAGCGCAGATACCAAAACTGTCCTTCTATTGACAATTCG", "DNA 2": "CGAATTGTCAATAGAAGGACAGTTTTGGTATCTGCGCTGGGTCTAAGCCA"}, "B2": {"name": "EcoPI specific 50-mer duplex (sDNA), Hex (dsDNA)", "DNA 1": "B1 DNA 1", "DNA 2": "B1 DNA 2"}, "B3": {"name": "EcoP15I Mod subunit (untagged) (enzyme, Escherichia coli, UniProt P12364 1-644, looked up)", "chain": "MKKETIFSEVETANSKQLAVLKANFPQCFDKNGAFIQEKLLEIIRASEVELSKESYSLNWLGKSYARLLANLPPKTLLAEDKTHNQQEENKNSQHLLIKGDNLEVLKHMVNAYAEKVKMIYIDPPYNTGKDGFVYNDDRKFTPEQLSELAGIDLDEAKRILEFTTKGSSSHSAWLTFIYPRLYIARELMREDGTIFISIDHNEFSQLKLVCDEIFGEQNHVGDLVWKNATDNNPSNIAVEHEYIIVYTKNKEQLISEWKSNISDVKNLLVNIGEEFASKYTGNELQEKYTQWFREHRSELWPLDRYKYIDKDGIYTGSQSVHNPGKEGYRYDIIHPKTKKPCKQPLMGYRFPLDTMDRLLSEEKIIFGDDENKIIELKVYAKDYKQKLSSVIHLDGRVATNELKELFPEMTQPFTNAKTIKLVEDLISFACDGEGIVLDFFAGSGTTAHTVFNLNNKNKTSYQFITVQLDEPTKDKSDAMKHGYNTIFDLTKERLIRASKKNRDQGFKVYQLMPDFRAKDESELTLSNHTFFDDVVLTPEQYDTLLTTWCLYDGSLLTTPIEDVDLGGYKAHLCDGRLYLIAPNFTSEALKALLQKVDSDKDFAPNKVVFYGSNFESAKQMELNEALKSYANKKSIELDLVVRN", "notes": "Mod (modification) subunit of the Type III restriction endonuclease EcoP15I, Escherichia coli; also called Mod2 (as dimer); source: with biotinylated Res: avidin resin, Mono-Q"}, "B4": {"name": "EcoP15I Mod subunit (commercial enzyme from New England Biolabs) (enzyme, Escherichia coli, UniProt P12364 1-644, looked up)", "chain": "B3 chain", "notes": "Mod subunit of the Type III restriction endonuclease EcoP15I, Escherichia coli; also called EcoP15I NEB; commercially available EcoP15I; source: bought: NEB (catalogue no. R0646S)"}}, "key": {"PstII Res subunit": {"biological_target": "PstII Res subunit", "assay": "SEC-MALS; 0.5–1.0 mg/ml (1.25–2.5 µM) enzyme, Superdex 200, Standard Assay Buffer minus BSA (50 mM Tris–HCl pH 8.0, 50 mM KCl, 10 mM MgCl2, 1 mM DTT), room temperature; enzyme alone or with excess Hex-labelled specific 50-mer DNA, with or without 1 mM ATP"}, "PstII Mod subunit": {"biological_target": "PstII Mod subunit", "assay": "SEC-MALS; 0.5–1.0 mg/ml (1.25–2.5 µM) enzyme, Superdex 200, Standard Assay Buffer minus BSA (50 mM Tris–HCl pH 8.0, 50 mM KCl, 10 mM MgCl2, 1 mM DTT), room temperature; enzyme alone or with excess Hex-labelled specific 50-mer DNA, with or without 1 mM ATP"}, "[1]": {"biological_target": "EcoPI Res subunit (wild type, untagged) (Escherichia coli)", "assay": "native MS; enzyme only, 10 µM, dialysed against 100 mM ammonium acetate pH 7.0; Q-TOF II modified for high-mass operation"}, "[2]": {"biological_target": "EcoPI Res subunit (wild type, untagged) (Escherichia coli)", "assay": "SEC-MALS; 0.5–1.0 mg/ml (1.25–2.5 µM) enzyme, Superdex 200, Standard Assay Buffer minus BSA (50 mM Tris–HCl pH 8.0, 50 mM KCl, 10 mM MgCl2, 1 mM DTT), room temperature; enzyme alone or with excess Hex-labelled specific 50-mer DNA, with or without 1 mM ATP"}, "[3]": {"biological_target": "T1, EcoPI holoenzyme (Res1Mod2) (Escherichia coli, UniProt P08764;P08763 1-970;1-646)", "assay": "native MS; no ATP; 1:1 complex 288.1 kDa; SEC-MALS: 50 mM Tris-HCl pH 8.0, 50 mM KCl, 10 mM MgCl2, 1 mM DTT, 0.1 mg/ml BSA (Standard Assay Buffer), 20 C; native MS: volatile ammonium acetate buffer, enzyme:DNA 1:2", "settings": "protein: recombinant; tags: none; copies: 1;2"}, "[4]": {"biological_target": "T1, EcoPI holoenzyme (Res1Mod2)", "assay": "SEC-MALS; 10 mM Mg2+, no ATP; 1:1 Res1Mod2:DNA; SEC-MALS: 50 mM Tris-HCl pH 8.0, 50 mM KCl, 10 mM MgCl2, 1 mM DTT, 0.1 mg/ml BSA (Standard Assay Buffer), 20 C; native MS: volatile ammonium acetate buffer, enzyme:DNA 1:2", "settings": "protein: recombinant; tags: none; copies: 1;2; label: 5'-Hex (12C linker) on top strand"}, "[5]": {"biological_target": "T2, EcoP15I Res subunit with C-terminal Avi-tag, biotinylated (Escherichia coli, UniProt Q5ZND2 1-970, biotin on the Avi-tag (co-expressed biotin ligase))", "T2 construct": "Res subunit of the Type III restriction endonuclease EcoP15I, Escherichia coli; also called biotinylated EcoP15I; bio-EcoP15I; not shown: Avi-tag, C-terminal, kept", "T2 sequence (looked up)": "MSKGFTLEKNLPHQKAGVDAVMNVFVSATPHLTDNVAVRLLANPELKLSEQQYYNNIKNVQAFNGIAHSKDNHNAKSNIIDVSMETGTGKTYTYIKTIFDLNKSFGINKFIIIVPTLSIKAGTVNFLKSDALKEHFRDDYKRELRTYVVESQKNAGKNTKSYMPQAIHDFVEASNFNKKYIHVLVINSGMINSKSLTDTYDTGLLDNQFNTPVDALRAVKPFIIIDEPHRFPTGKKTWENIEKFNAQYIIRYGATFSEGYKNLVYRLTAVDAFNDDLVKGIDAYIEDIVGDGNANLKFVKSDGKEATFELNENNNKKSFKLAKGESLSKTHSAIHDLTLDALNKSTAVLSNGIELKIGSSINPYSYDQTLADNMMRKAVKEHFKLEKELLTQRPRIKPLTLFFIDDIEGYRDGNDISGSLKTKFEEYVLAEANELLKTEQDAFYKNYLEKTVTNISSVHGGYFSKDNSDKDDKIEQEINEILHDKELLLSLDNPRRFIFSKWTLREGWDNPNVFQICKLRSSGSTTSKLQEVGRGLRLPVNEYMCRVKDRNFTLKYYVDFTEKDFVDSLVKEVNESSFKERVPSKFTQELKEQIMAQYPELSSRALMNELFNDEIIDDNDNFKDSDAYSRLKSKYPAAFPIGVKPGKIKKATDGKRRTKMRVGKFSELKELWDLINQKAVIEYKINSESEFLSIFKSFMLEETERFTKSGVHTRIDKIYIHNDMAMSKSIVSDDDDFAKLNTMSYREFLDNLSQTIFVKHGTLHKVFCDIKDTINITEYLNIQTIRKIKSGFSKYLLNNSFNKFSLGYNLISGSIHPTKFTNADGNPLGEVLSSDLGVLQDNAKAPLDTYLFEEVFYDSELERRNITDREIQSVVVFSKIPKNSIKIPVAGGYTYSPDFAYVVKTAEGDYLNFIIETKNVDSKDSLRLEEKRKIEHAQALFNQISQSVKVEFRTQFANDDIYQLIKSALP", "assay": "native MS; enzyme only, 10 µM, dialysed against 100 mM ammonium acetate pH 7.0; Q-TOF II modified for high-mass operation", "settings": "both partners purified"}, "[6]": {"biological_target": "T3, EcoP15I Res subunit (wild type, untagged) (Escherichia coli, UniProt Q5ZND2 1-970)", "T3 construct": "Res (restriction) subunit of the Type III restriction endonuclease EcoP15I, Escherichia coli; Made only together with Mod from the natural operon; also called wt EcoP15I", "T3 sequence (looked up)": "T2 sequence (looked up)", "assay": "native MS; enzyme only, 10 µM, dialysed against 100 mM ammonium acetate pH 7.0; Q-TOF II modified for high-mass operation", "settings": "both partners purified"}, "[7]": {"biological_target": "the molecule itself", "assay": "native MS; wt EcoP15I 5 µM with 10 µM 50-mer DNA (1:2), 2 mM magnesium acetate (4 mM MgOAc and 2 mM ATP where ATP was added), buffer-exchanged into 100 mM ammonium acetate; Synapt G2 HDMS"}, "[8]": {"biological_target": "T4, EcoP15I Res subunit R534A (Escherichia coli, UniProt Q5ZND2 1-970, R534A)", "T4 construct": "Res subunit of the Type III restriction endonuclease EcoP15I, Escherichia coli; mutated in Motif VI of the helicase, lacks ATPase activity; also called R534A EcoP15I; R534A P15I; source: purified identically to the wild-type (DEAE-Sepharose, heparin, Superdex 200), co-purified with Mod", "T4 sequence (looked up)": "T2 sequence (looked up) with R534A", "assay": "SEC-MALS; 0.5–1.0 mg/ml (1.25–2.5 µM) enzyme, Superdex 200, Standard Assay Buffer minus BSA (50 mM Tris–HCl pH 8.0, 50 mM KCl, 10 mM MgCl2, 1 mM DTT), room temperature; enzyme alone or with excess Hex-labelled specific 50-mer DNA, with or without 1 mM ATP", "settings": "both partners purified"}, "[9]": {"biological_target": "T5, EcoP15I Res subunit (commercial enzyme from New England Biolabs) (Escherichia coli, UniProt Q5ZND2 1-970)", "T5 construct": "Res subunit of the Type III restriction endonuclease EcoP15I, Escherichia coli; also called EcoP15I NEB; commercially available EcoP15I; source: bought: NEB (catalogue no. R0646S)", "T5 sequence (looked up)": "T2 sequence (looked up)", "assay": "SEC-MALS; 0.5–1.0 mg/ml (1.25–2.5 µM) enzyme, Superdex 200, Standard Assay Buffer minus BSA (50 mM Tris–HCl pH 8.0, 50 mM KCl, 10 mM MgCl2, 1 mM DTT), room temperature; enzyme alone or with excess Hex-labelled specific 50-mer DNA, with or without 1 mM ATP", "settings": "both partners purified"}}, "note": "Positions count from the first letter of the chain named. In names and notes the source's numbering stands.", "data": [{"molecule": "PstII Mod subunit (enzyme)", "values": [{"measurement": "stoichiometry N", "setting": "PstII Res subunit", "result": 2, "unit": "Mod per Res"}, {"measurement": "stoichiometry N", "setting": "PstII Mod subunit", "result": 2}]}, {"molecule": "EcoPI Mod subunit (untagged) (enzyme)", "values": [{"measurement": "stoichiometry N", "setting": "[1]", "result": 2, "unit": "Mod per Res"}, {"measurement": "stoichiometry N", "setting": "[2]", "result": 2, "unit": "Mod per Res"}]}, {"molecule": "B1", "values": [{"measurement": "binding result", "setting": "[3]", "result": "binds"}]}, {"molecule": "B2", "values": [{"measurement": "binding result", "setting": "[4]", "result": "binds"}]}, {"molecule": "B3", "values": [{"measurement": "stoichiometry N", "setting": "[5]", "result": 2, "unit": "Mod per Res"}, {"measurement": "stoichiometry N", "setting": "[6]", "result": 2, "unit": "Mod per Res"}, {"measurement": "stoichiometry N", "setting": "[7]", "result": 2}, {"measurement": "binding result", "setting": "[8]", "result": "binds"}]}, {"molecule": "B4", "values": [{"measurement": "stoichiometry N", "setting": "[9]", "result": 2, "unit": "Mod per Res"}]}]}
